In article PMC10841013 one finds binding data, which are given here for one sequence.

The target of this data set is T1, rArgR (Streptococcus suis CZ130302) (UniProt Q3C167).
T1 sequence: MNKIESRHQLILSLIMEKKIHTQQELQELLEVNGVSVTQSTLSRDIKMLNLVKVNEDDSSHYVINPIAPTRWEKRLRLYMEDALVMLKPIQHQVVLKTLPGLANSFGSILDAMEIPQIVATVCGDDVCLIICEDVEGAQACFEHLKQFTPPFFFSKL
Kind of data set: EMSA. For orientation: Mobility shift assays separate free from complexed probe on a gel.

As to “TGGATGGTTTGACATGATCTGTCCTCCTTGTAGATTTATACATGATGGGAAACGAGGAGGACCGTACGCTTTCCTGCCTCTCATTTCCTCTTTACATCCATAGTTTAACAGAGCAAAAAAACAAAAACTTGAAAACGCTCGCATTTATGTTGAGAAATTCTTCACATTTTCAACCTTATTTATAAATAATTATCGATTATATCGCCTATATTATGCATAATTCTTTCTATTATATCATTATGTGAATTTT (double strand) [arcA promoter 250 bp]”, the binding result is given as “binds”.
